72 sequences from the supplement of paper PMC10567573 can be followed below.

The nature of the data set: protein stability index of a GFP-peptide fusion (GPS, HEK-293T) (PSI 1-6); higher = more stable.
[1] abbreviates: treatment: DMSO, c terminus: a fixed tail appended.
The mark [2] stands for this setting: treatment: MLN4924 1 uM, 8 h, c terminus: a fixed tail appended.

± gives the standard deviation.
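Further: 24-mer peptide tiles fused after GFP, lentivirally expressed, FACS-sorted into six equal bins by GFP/DsRed ratio, decoded by Illumina sequencing, PSI is the read-weighted mean bin number.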

For the sequence YHNSPAYLAYINAKSRAEAALEEE [SMARCE1], the protein stability index by setting is: under setting [1], 2.53 ± 0.54; under setting [2], 4.01 ± 0.38.
The matching figures for GLNDALDNLRKVVPCYSKTQKLSK [NEUROD6]: 3.25 ± 0.15 and 3.42 ± 0.18.
The matching figures for PNYEFKLGKITFIRNSRPLVKKVE [UFD1]: 2.62 ± 0.5 and 2.77 ± 0.35.
Taken in the same sequence, the figures for LMKKIGQCPMRVQKEVAGFVLNRL [CRYL1] were 2.34 ± 0.38 and 2.53 ± 0.24.
For GVGFATRKVAGMAKPNMIISVNGD [FABP4], the protein stability index reads like this: under setting [1], 3.02 ± 0.28; under setting [2], 3.04 ± 0.47.
The matching figures for MEEASEGGGNDRVRNLQSEVEGVK [VAMP8]: 5.49 ± 0.19 and 5.38 ± 0.16.
Taken in the same sequence, the figures for MAEISRIQYEMEYTEGISQRMRVP [MFF] were 2.67 ± 0.3 and 2.79 ± 0.6.
Taken in the same sequence, the figures for IETEPTVHHLPLSTEKVVQETVLV [EPB41L3] were 4 ± 0.11 and 3.84 ± 0.28.
Sequence SWDTESSGSDSGGSSSSSSSSINS [FAM104A] came in with a protein stability index under setting [1] of 5.25 ± 0.22 and a protein stability index under setting [2] of 5.1 ± 0.26.
Taken in the same sequence, the figures for SVSRPEGRSWPSAPDDSKAQAHRI [PDLIM4] were 4.76 ± 0.21 and 4.95 ± 0.18.
Taken in the same sequence, the figures for HNNNNNCEENEQSLPPPAGLNSSW [BNIP3L] were 4.96 ± 0.17 and 5.09 ± 0.078.
Taken in the same sequence, the figures for NHEEEVNTLRSQLGDRLNVEVDTA [KRT34] were 5.4 ± 0.33 and 5.441 ± 0.028.
REHAKARVDHGAEIITQSPGRSSV [MAP2] had a protein stability index under setting [1] of 4.75 ± 0.11 and a protein stability index under setting [2] of 4.89 ± 0.12.
LGYFIRSWRTLAILVNLQGTVVFL [SLC22A15]: the protein stability index was determined as 2.71 ± 0.55 under setting [1] and 2.62 ± 0.75 under setting [2].
The matching figures for DSLDEARSSGSEGTPADTGDLSPG [PWWP2B]: 5.6 ± 0.18 and 5.52 ± 0.15.
In the case of REKIMKLPLPESLKAYLTYFRDK [PCMTD1], the protein stability index reads like this: (treatment: DMSO, c terminus: native) 2.05 ± 0.36; (treatment: MLN4924 1 uM, 8 h, c terminus: native) 2.59 ± 0.34.
Take FTELRLLLDEEEALAKKFIDKNTQ [TRIM14]: the protein stability index was determined as 2.68 ± 0.53 under setting [1] and 3.44 ± 0.93 under setting [2].
The matching figures for VLDLQRIFALYSSLKFKSRVPQTW [PLD5]: 3.19 ± 0.94 and 2.09 ± 0.26.
Taken in the same sequence, the figures for FPYFRSDRDKRDFVSAGAAAGVAA [CLCN6] were 3.63 ± 0.45 and 3.82 ± 0.23.
The matching figures for FYKRRGASDLSSEEGWRLFKIDKE [SAT1]: 3.32 ± 0.21 and 3.62 ± 0.49.
SEEKLALDNNASASGNATQTESGS [C10orf62]: the protein stability index is, setting by setting: under setting [1], 5.55 ± 0.15; under setting [2], 5.6 ± 0.19.
EREAEKEQKRLERLQRKLVEPKHC [SDE2]: the protein stability index runs as follows: under setting [1], 4.7 ± 0.17; under setting [2], 4.82 ± 0.085.
Turning to QSWMWRGLTFLLPFLFFGHFWQLF [TMEM120A], the protein stability index was 2.66 ± 1.1 under setting [1] and 2.79 ± 0.25 under setting [2].
Taken in the same sequence, the figures for RDSYSSSSRGAPRGGGRGGSRSDR [RBMX] were 5.41 ± 0.24 and 5.44 ± 0.17.
The matching figures for TEQALRLSVEADINGLRRVLDELT [KRT17]: 3.07 ± 0.2 and 3.18 ± 0.25.
For EDSIPLRGLSQNLFSNSDHQRDGT [SASS6], the protein stability index is, setting by setting: under setting [1], 4.94 ± 0.15; under setting [2], 4.99 ± 0.2.
Taken in the same sequence, the figures for DEGRLVLEFSLLSYAFGKFPTVVW [SOAT1] were 2.33 ± 0.68 and 3.07 ± 0.14.
The matching figures for CQGVSEAAHRLARRLYHLEGFQRC [PSD2]: 2.41 ± 0.21 and 2.54 ± 0.17.
Taken in the same sequence, the figures for ILHLICLLEKVPCTLEQDHFKKQT [FEM1C] were 2.82 ± 0.71 and 2.25 ± 0.45.
Turning to MNVDFDAPLGYKEPERQVQHEEST [UFD1], the protein stability index reads like this: under setting [1], 5.28 ± 0.062; under setting [2], 5.31 ± 0.29.
The matching figures for GDETAHRIDSQFLIGDTLLVAPVL [MYORG]: 2.94 ± 0.3 and 2.85 ± 0.34.
The matching figures for LEAPEDIGSTSESKDWEEVVVESM [MIA2]: 5.4 ± 0.23 and 5.58 ± 0.013.
Taken in the same sequence, the figures for PGPQGSAGQRGEPGPKGDPGEKSH [EMID1] were 5.62 ± 0.4 and 5.49 ± 0.26.
Turning to DLDETLIHSHHDGVLRPTVRPGTP [CTDNEP1], the protein stability index reads like this: under setting [1], 4.53 ± 0.086; under setting [2], 4.67 ± 0.21.
Turning to YRWHINFTTFFIDCMAALGLAYDR [SCD], the protein stability index by setting is: under setting [1], 2.99 ± 0.65; under setting [2], 2.61 ± 0.64.
Taken in the same sequence, the figures for LEENELTSLAEDLLGLTDPNGGLA [TRADD] were 4.49 ± 0.27 and 4.43 ± 0.29.
Taken in the same sequence, the figures for EPATPEEGEPATQRQDPAAAQEGE [GAGE1] were 5.62 ± 0.13 and 5.61 ± 0.19.
The matching figures for FEPPAPGEGNSSQNSRNKRAVQGP [TNFSF13B]: 5.3 ± 0.17 and 5.45 ± 0.2.
With RSGGHAPRVRELLLDALSPEQLVL [ESR2], the protein stability index turned out to be 2.82 ± 0.14 under setting [1] and 2.91 ± 0.34 under setting [2].
With LRGKSIKRAPGEETEKEEEEEDRE [NEUROD6], the protein stability index is, setting by setting: under setting [1], 5.66 ± 0.45; under setting [2], 5.67 ± 0.3.
The matching figures for ECFETLRGDERILSILRHQNLLKE [CHGA]: 2.9 ± 0.24 and 2.85 ± 0.34.
The matching figures for CKSGAAAKGGFSGCSAVLSGGSSS [KRT71]: 3.26 ± 0.46 and 3.44 ± 0.066.
Taken in the same sequence, the figures for ILISFTCRFLLNSRVTDAAFNFLL [TMEM120A] were 2.9 ± 0.38 and 3.25 ± 0.23.
Regarding ALAAATAAAAAAASAAAATAAFTT [SPAG8], the protein stability index under setting [1] came out at 3.04 ± 0.18 and the protein stability index under setting [2] was 3.25 ± 0.18.
Taken in the same sequence, the figures for SPDLEWHAACLKCAECSQYLDETC [ISL2] were 4.04 ± 0.19 and 4.03 ± 0.39.
The matching figures for EYRQRRERNNIAVRKSRDKAKRRN [CEBPD]: 4.42 ± 0.36 and 4.426 ± 0.023.
Taken in the same sequence, the figures for KLDPTLSSCFFIESCGAQVPVEGS were 3.02 ± 0.41 and 3.04 ± 0.5.
Take RDQIFRYVHDPECVATTGDITVSV [FBXO3]: the protein stability index stood at 2.52 ± 0.2 under setting [1] and 2.42 ± 0.27 under setting [2].
The matching figures for EGSLEWDILEVKRLLDHQDNILSL [WDR41]: 2.42 ± 0.2 and 2.53 ± 0.21.
For the sequence AMPDPAGPDGHLPAVATLCDLFDR [ESRRA], the protein stability index came to 4.27 ± 0.23 under setting [1] and 4.4 ± 0.23 under setting [2].
With ANAAKHTQDSARVNPQDGTNTLTR [EHMT1], the protein stability index under setting [1] was determined as 5.13 ± 0.18 and the protein stability index under setting [2] turned out to be 5.19 ± 0.14.
Regarding LFGHPGLDMELGPSQGQETNEVCE [ADAMTSL2], under setting [2], the protein stability index amounted to 5.29 ± 0.35.
In the case of DAQEIMQSLRDLGVKISEQQAEKI [SLC25A25], the protein stability index by setting is: under setting [1], 3.81 ± 0.21; under setting [2], 3.79 ± 0.47.
The matching figures for MVGGNAVPQRTAGGDVPERELYIR [MYORG]: 3.9 ± 0.28 and 4.29 ± 0.16.
The matching figures for PPFMIALACLHVACVVQQKDARQW [CCNC]: 3.3 ± 0.18 and 3.08 ± 0.35.
Taken in the same sequence, the figures for EDERWTNNFREYNLHRVAAHELGH [MMP1] were 3.73 ± 0.19 and 3.62 ± 0.2.
Turning to FKSLDKKNDGRIDAQEIMQSLRDL [SLC25A25], the protein stability index by setting is: under setting [1], 4 ± 0.2; under setting [2], 3.92 ± 0.34.
Taken in the same sequence, the figures for SPYLGQMINLRRLLLSHIHASSYI [PRAME] were 2.7 ± 0.51 and 2.47 ± 0.48.
Taken in the same sequence, the figures for FPNQKSEAAEPPKTPPSSCDSTNA [KMT5A] were 5.52 ± 0.13 and 5.53 ± 0.2.
In the case of GLNSSWVELPMNSSNGNDNGNGKN [BNIP3L], the protein stability index runs as follows: under setting [1], 5.11 ± 0.42; under setting [2], 5.54 ± 0.2.
The matching figures for DYMKEVGVGFATRKVAGMAKPNMI [FABP4]: 3.13 ± 0.48 and 3.06 ± 0.64.
Taken in the same sequence, the figures for SRLPAKCPGKGAWSIPWKWLFGAT [FKBP8] were 1.99 ± 0.22 and 2.05 ± 0.28.
VDYKQSVLNVAGEAGGKQKAVEEE [SLC6A17]: the protein stability index is, setting by setting: under setting [1], 5.52 ± 0.44; under setting [2], 5.68 ± 0.3.
Taken in the same sequence, the figures for ITESFTELARIVLLRHGMDRLWRP [RAB40B] were 2.84 ± 0.1 and 2.86 ± 0.25.
In the case of QEPDFIDDIEEKTPISNEVEMESE [KMT2E], the protein stability index under setting [1] was 5.24 ± 0.22 and the protein stability index under setting [2] was determined as 5.43 ± 0.23.
Take PSPSEVITPWTPSPSEKNSSFTWS [SMTNL2]: the protein stability index reads like this: under setting [1], 4.22 ± 0.095; under setting [2], 4 ± 0.062.
Consider TFFGTELAPVRQQELASLLRTYLA [PBXIP1], for which the protein stability index by setting is: under setting [1], 2.22 ± 0.29; under setting [2], 2.48 ± 0.43.
The matching figures for LHPRGKNNFSPLHLAVDKNTTCVG [FEM1C]: 3.39 ± 0.13 and 3.43 ± 0.12.
Taken in the same sequence, the figures for VSTWFANARRRLKKENKMTWAPKN [IRX6] were 2.57 ± 0.22 and 2.75 ± 0.13.
Taken in the same sequence, the figures for GAQIWCGEGVDKLSLPARNQAGYF [ALDH8A1] were 2.47 ± 0.27 and 2.65 ± 0.37.
For the sequence YSENAPFHLSLFQGWMNLLNMAKK [PLD5], the protein stability index came out at 2.08 ± 0.61 under setting [1] and 2.23 ± 0.13 under setting [2].
As for SLCYLQLTRQLVSCSSDGGIAVWN [WDFY1], the protein stability index reads like this: under setting [1], 2.87 ± 0.57; under setting [2], 2.81 ± 0.46.
